This is an account of results in US20240148887A1 (MERSANA THERAPEUTICS, published 2024).

Test [1] addresses T1, FcγRIIA (H167) (human, UniProt P12318 36-218, limits assumed).
T1 construct: H167 is printed as the allelic form
T1 sequence (looked up): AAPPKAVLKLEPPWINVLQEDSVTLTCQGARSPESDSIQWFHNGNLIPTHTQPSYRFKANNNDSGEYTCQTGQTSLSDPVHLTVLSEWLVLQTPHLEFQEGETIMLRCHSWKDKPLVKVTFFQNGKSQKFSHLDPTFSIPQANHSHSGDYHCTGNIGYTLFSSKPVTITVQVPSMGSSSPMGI
Nature of the test: BLI (Octet QKe), test article on anti-human Fab-CH1 (FAB2G) sensors, receptor in solution, 25 C, 1:1 global fit; mean of 3 experiments. The method, then:
(§1) Dissociation was performed for 15 minutes. Binding constants were calculated with the global fit averages of the traces using a 1:1 model. […] Kinetic parameters were calculated using Octet software (ForteBio).
In general terms: In BLI a coated tip is dipped into the sample, and binding shifts an interference pattern.

The target in test [2] is T2, FcγRI (human, UniProt P12314 16-288, limits assumed).
T2 construct: also called Fc receptor FcγRI
T2 sequence (P12314 16-288 limits assumed): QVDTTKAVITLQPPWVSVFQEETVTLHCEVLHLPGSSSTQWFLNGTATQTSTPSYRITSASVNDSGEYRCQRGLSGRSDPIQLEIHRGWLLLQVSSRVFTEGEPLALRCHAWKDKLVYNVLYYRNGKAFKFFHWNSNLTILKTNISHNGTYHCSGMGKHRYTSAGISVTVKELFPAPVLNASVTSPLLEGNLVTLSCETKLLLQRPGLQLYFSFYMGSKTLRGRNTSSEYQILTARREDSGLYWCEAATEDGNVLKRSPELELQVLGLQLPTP
The test is described as above. The method, then: as §1

Test [3] concerns the target T3, NaPi2b-derived peptide from cynolmogus monkey ([Cyc(12,18)]Ac-QMNVTVPSMANCTSPSLCWTDGIQIWTMKN-amide) (cynomolgus monkey, [Cyc(12,18)] cyclisation between residues 12 and 18; N-terminal acetyl (Ac-); C-terminal amide).
T3 peptide: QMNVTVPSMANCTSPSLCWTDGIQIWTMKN
Nature of the test: ELISA, cyclic peptide coated on plate; mean of 2 experiments. For orientation: ELISA stands for enzyme-linked immunosorbent assay.

The target of test [4] is T4, NaPi2b-derived peptide from mouse ([Cyc(12,18)]Ac-EMNVTVPSTDNCTSPSYCWTDGIQTWTIQN-amide) (mouse, [Cyc(12,18)] cyclisation between residues 12 and 18; N-terminal acetyl (Ac-); C-terminal amide).
T4 peptide: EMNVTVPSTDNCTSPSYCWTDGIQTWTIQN
Described as above.

For test [5], the target named is T5, NaPi2b-derived peptide from rat ([Cyc(12,18)]Ac-EENVTVPSPDNCTSPSYCWTDGIQTWTIQN-amide) (rat, [Cyc(12,18)] cyclisation between residues 12 and 18; N-terminal acetyl (Ac-); C-terminal amide).
T5 peptide: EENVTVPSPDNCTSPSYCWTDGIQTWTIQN
Described as above.

Test [6] concerns the target T6, NaPi2b-derived peptide from human ([Cyc(12,18)]Ac-QINVTVPSTANCTSPSLCWTDGIQNWTMKN-amide) (human, [Cyc(12,18)] cyclisation between residues 12 and 18; N-terminal acetyl (Ac-); C-terminal amide).
T6 peptide: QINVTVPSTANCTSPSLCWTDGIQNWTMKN
The test is described as above.

In test [7] the target is T7, NaPi2b on the cell surface of OVCAR3 human ovarian carcinoma cells (human, UniProt O95436 1-690).
T7 construct: also called sodium-dependent phosphate transport protein 2B; SLC34A2
T7 sequence: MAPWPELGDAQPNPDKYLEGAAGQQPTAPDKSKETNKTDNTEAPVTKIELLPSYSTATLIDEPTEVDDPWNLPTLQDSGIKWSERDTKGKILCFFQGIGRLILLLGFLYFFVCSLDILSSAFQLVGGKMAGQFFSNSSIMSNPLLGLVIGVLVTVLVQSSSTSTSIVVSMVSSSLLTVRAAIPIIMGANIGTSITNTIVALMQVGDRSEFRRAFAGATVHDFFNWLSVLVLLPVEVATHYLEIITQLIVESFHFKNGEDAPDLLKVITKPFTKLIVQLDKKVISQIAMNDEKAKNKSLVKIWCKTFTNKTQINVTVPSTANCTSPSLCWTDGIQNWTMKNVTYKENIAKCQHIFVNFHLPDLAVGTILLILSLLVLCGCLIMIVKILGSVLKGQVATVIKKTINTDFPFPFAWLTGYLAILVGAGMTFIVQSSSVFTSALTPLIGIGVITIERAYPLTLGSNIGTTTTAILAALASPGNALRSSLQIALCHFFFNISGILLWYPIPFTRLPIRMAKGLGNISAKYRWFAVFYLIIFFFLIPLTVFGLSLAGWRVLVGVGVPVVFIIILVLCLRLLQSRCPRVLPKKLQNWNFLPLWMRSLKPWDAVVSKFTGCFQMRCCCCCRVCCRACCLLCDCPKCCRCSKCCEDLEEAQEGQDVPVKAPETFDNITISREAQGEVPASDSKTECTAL
Put plainly: flow cytometry on OVCAR3 cells, Alexa Fluor 647 anti-human IgG, median fluorescence, four-parameter fit; mean of 2 experiments. Background: A flow cytometer gives signals particle by particle.
Method: The detached cells were triturated in media, and plated in 96 well U-bottom plates, at a density of 50,000 cells in medium (75 μL). […] The cells were washed with ice cold PBS (3×), and resuspended in ice cold PBS with 1% paraformaldehyde (100 L). The fluorescence per cell was determined by analyzing 5,000 cells for each treatment on the flow cytometer. The median fluorescence value for each treatment was plotted, and EC₅₀ values were calculated with Graphpad Prism software by four-parameter curve fitting.

The target of test [8] is T8, human FcRn protein (Immunitrack) (human, UniProt P55899 24-297; P61769 21-119, limits assumed).
T8 construct: also called FcRn receptor
T8 sequence (P55899 24-297 limits assumed, chain 1 of 2): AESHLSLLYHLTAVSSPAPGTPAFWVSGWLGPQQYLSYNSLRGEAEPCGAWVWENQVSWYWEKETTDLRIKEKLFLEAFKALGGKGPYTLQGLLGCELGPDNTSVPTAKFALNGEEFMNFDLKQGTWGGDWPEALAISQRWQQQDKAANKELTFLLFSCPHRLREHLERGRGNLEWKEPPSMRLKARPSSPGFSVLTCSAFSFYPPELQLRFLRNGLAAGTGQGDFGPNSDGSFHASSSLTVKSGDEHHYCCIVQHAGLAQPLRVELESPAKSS
T8 sequence (P61769 21-119 limits assumed, chain 2 of 2): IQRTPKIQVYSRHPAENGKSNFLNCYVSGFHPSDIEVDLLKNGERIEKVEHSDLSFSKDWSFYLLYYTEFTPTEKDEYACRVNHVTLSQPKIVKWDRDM
Put plainly: BLI (Octet QKe), test article on anti-human Fab-CH1 (FAB2G) sensors, FcRn in solution, pH 6.0, 1:1 global fit; mean of 2 experiments. The method, then:
as §1
(§2) After association, sensors were washed for 5 minutes in FcRn binding buffer (Boston Bioproducts; diluted to 100 mM NaH₂PO₄, 0.05% Tween 20, pH 6.0). Association and dissociation steps were performed in FcRn binding buffer. Association measurements to FcRn protein (Immunitrack) was measured at 7 concentrations (from 1 μM to […], 2-fold serial dilutions) for 5 minutes. Dissociation was performed for 15 minutes. Binding constants were calculated with the global fit averages of the traces using a 1:1 model.

The next test deals with FcγRIIIA (V176) (human, UniProt P08637 17-208, limits assumed). Nature of the test: BLI (Octet QKe), test article on anti-human Fab-CH1 (FAB2G) sensors, receptor in solution, 25 C, 1:1 global fit; mean of 2 experiments. The protocol:
as §1

Test [9] has as its target T9, Human NaPi2b-derived peptide (QINVTVPSTANCTSPSLCWTDGIQNWTMKN) (human).
T9 construct: no modification is printed there; also called NaPi2b peptide
T9 peptide: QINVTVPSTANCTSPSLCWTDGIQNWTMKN
Nature of the test: ELISA, peptide coated on plate, anti-human IgG-HRP, four-parameter fit; mean of 2 experiments.
Method: (§3) Human NaPi2b-derived peptide ([sequence]) was coated onto the surface of each well of a 96-well plate by incubation with the peptide (1 μg/mL in PBS), overnight at +4° C. The wells were then blocked by incubation with BSA (3% in PBS, containing 0.1% Tween 20 (PBST)) for 1 hour at room temperature. […] The unbound test article was removed by washing with PBST (3×). A secondary anti-human IgG conjugated to HRP (0.16 μg/mL in PBST) was incubated in each well for 1 hour. The unbound secondary antibody was removed by washing with PBST (3×). The HRP substrate, TMB, was added to each well and incubated until a blue color was visible. The reaction was quenched by the addition of sulfuric acid (0.2 N, 100 μL). […] The values were plotted using GraphPad Prism software. EC₅₀ values were determined by four-parameter curve fitting.

Test [10] deals with T10, Biotinylated NaPi2b-derived peptide (QINVTVPSTANCTSPSLCWTDGIQNWTMKN-biotin; Genscript) (C-terminal biotin).
T10 construct: also called NaPi2b-derived peptide antigen; immobilized NaPi2b-derived peptide
T10 peptide: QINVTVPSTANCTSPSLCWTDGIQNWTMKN
Nature of the test: BLI (Octet), biotinylated peptide on streptavidin sensors, 25 C; mean of 4 experiments. The protocol: Biotinylated NaPi2b-derived peptide ([…]-biotin; Genscript) was immobilized to streptavidin octet sensors in kinetics buffer (10×). Sensors were then blocked in kinetics buffer (10×) with biocytin (50 μg/mL).

For test [11], the target named is T9, Human NaPi2b-derived peptide …. Nature of the test: ELISA, peptide coated on plate, anti-human IgG-HRP, four-parameter fit; mean of 3 experiments.
Method: as §3
In test [12] the target is T1, FcγRIIA (H167). Nature of the test: BLI (Octet QKe), test article on anti-human Fab-CH1 (FAB2G) sensors, receptor in solution, 25 C, 1:1 global fit; mean of 2 experiments. The method, then:
as §1

The target in test [13] is T2, FcγRI. The description is as above. The protocol: as §1
Test [14] concerns the target T8, human FcRn protein (Immunitrack). Nature of the test: BLI (Octet QKe), test article on anti-human Fab-CH1 (FAB2G) sensors, FcRn in solution, pH 6.0, 1:1 global fit; mean of 5 experiments. The protocol:
as §1, §2

Chain of FcγRIIIA (V176) (P08637 17-208 F176V limits assumed): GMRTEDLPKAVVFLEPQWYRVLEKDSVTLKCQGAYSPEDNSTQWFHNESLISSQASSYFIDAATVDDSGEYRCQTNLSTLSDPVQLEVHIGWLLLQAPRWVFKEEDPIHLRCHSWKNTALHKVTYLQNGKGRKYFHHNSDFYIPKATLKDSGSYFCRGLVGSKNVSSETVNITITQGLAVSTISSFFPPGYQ

B1: XMT-1535 (anti-NaPi2b antibody) (antibody, human IgG1, kappa)
heavy: not shown
light: DIQMTQSPSSLSASVGDRVTITCSASQDIGNFLNWYQQKPGKTVKVLIYYTSSLYSGVPSRFSGSGSGTDYTLTISSLQPEDFATYYCQQYSKLPLTFGQGTKLELKRRTVAAPSVFIFPPSDEQLKSGTASVVCLLNNFYPREAKVQWKVDNALQSGNSQESVTEQDSKDSTYSLSSTLTLSKADYEKHKVYACEVTHQGLSSPVTKSFNRGEC
notes: Unconjugated IgG1 antibody
As to B1, the Kd (as a rule, a measure of binding affinity in units of concentration) in the test with FcγRIIA (H167) [1] was 1740 nM; with FcγRI [2], 0.15 nM; in [8] it was 2.76 nM; with FcγRIIIA (V176) it was 641 nM; in test [10], 0.0729 nM. Besides, the koff (commonly the rate constant with which the complex falls apart) is 0.308 s⁻¹ in the test with FcγRIIA (H167) [1]; 0.000192 s⁻¹ in the test with FcγRI [2]; 0.000448 s⁻¹ in test [8]; 0.146 s⁻¹ in the test with FcγRIIIA (V176); 1.27e-05 s⁻¹ in [10]. Besides, the kon (commonly the rate constant with which the complex forms) in the test with FcγRIIA (H167) [1] was 175000 M⁻¹ s⁻¹; with FcγRI [2], 1.28e+06 M⁻¹ s⁻¹; in test [8], 160000 M⁻¹ s⁻¹; in the test with FcγRIIIA (V176) it was 216000 M⁻¹ s⁻¹; in [10] it was 170000 M⁻¹ s⁻¹. Further, the EC50 – broadly, the concentration at which the effect is half-maximal – in test [3] amounted to 4.04 nM; in test [4] it was 2.77 nM; in test [5], 4.71 nM; in [6] it was 4.43 nM; in test [7], 11.2 nM; in [9], 1.77 nM.

B2: Conjugate 11 (XMT-1535 stochastic conjugate) (antibody, human IgG1, kappa)
heavy: not shown
light: DIQMTQSPSSLSASVGDRVTITCSASQDIGNFLNWYQQKPGKTVKVLIYYTSSLYSGVPSRFSGSGSGTDYTLTISSLQPEDFATYYCQQYSKLPLTFGQGTKLELKRRTVAAPSVFIFPPSDEQLKSGTASVVCLLNNFYPREAKVQWKVDNALQSGNSQESVTEQDSKDSTYSLSSTLTLSKADYEKHKVYACEVTHQGLSSPVTKSFNRGEC
modifications: maleimido scaffold of Scaffold 6 (AF-HPA payload) on cysteines freed by TCEP reduction; stochastic, positions not given
notes: DAR 6.5
Take B2: the EC50 in test [3] is 4.19 nM; in test [4], 2.26 nM; in test [5], 3.72 nM; in test [6], 5 nM; in test [7] it was 6.56 nM; in [11], 1.05 nM. Besides, the Kd with FcγRIIIA (V176) stood at 270 nM; with FcγRIIA (H167) [12] it was 1250 nM; with FcγRI [13], 0.166 nM; in test [14], 4.96 nM; in test [10], 0.0813 nM. Moreover, the koff came out at 0.0671 s⁻¹ with FcγRIIIA (V176); 0.345 s⁻¹ with FcγRIIA (H167) [12]; 0.000209 s⁻¹ with FcγRI [13]; 0.00055 s⁻¹ in [14]; 1.37e-05 s⁻¹ in [10]. Further, the kon with FcγRIIIA (V176) was determined as 270000 M⁻¹ s⁻¹; with FcγRIIA (H167) [12] it was 273000 M⁻¹ s⁻¹; in the test with FcγRI [13], 1.26e+06 M⁻¹ s⁻¹; in test [14] it was 126000 M⁻¹ s⁻¹; in test [10], 165000 M⁻¹ s⁻¹.

B3: Conjugate 7 (XMT-1535 drug conjugate of Scaffold 6) (antibody, human IgG1, kappa)
heavy: not shown
light: DIQMTQSPSSLSASVGDRVTITCSASQDIGNFLNWYQQKPGKTVKVLIYYTSSLYSGVPSRFSGSGSGTDYTLTISSLQPEDFATYYCQQYSKLPLTFGQGTKLELKRRTVAAPSVFIFPPSDEQLKSGTASVVCLLNNFYPREAKVQWKVDNALQSGNSQESVTEQDSKDSTYSLSSTLTLSKADYEKHKVYACEVTHQGLSSPVTKSFNRGEC
modifications: Scaffold 6 linker-drug (AF-HPA payload) attached by click chemistry to the azido-modified GlcNAc(Fuc)-GalNAc glycan on the asparagine at N297 (N300 of SEQ ID NO: 1 according to claim 40)
notes: The glycan was trimmed with Endo SH and extended with an azido sugar; the text prints 6.6
Take B3: the Kd with FcγRI [2] is 3.05 nM; in [14], 5.88 nM; in [10], 0.0828 nM. Moreover, the koff was 0.00373 s⁻¹ in the test with FcγRI [2], 0.000481 s⁻¹ in test [14] and 1.81e-05 s⁻¹ in test [10]. In addition, the kon is 1.13e+06 M⁻¹ s⁻¹ with FcγRI [2], 86100 M⁻¹ s⁻¹ in test [14] and 200000 M⁻¹ s⁻¹ in test [10]. The concentration for a half-maximal effect (EC50) in test [3] was found to be 3.83 nM; in test [4] it was 1.79 nM; in test [5], 2.48 nM; in [6], 3.7 nM; in [7] it was 8.15 nM; in [11], 1.44 nM.
